In the supplement of paper PMC10724198:
± gives the standard deviation of the averaged measurements.

How the values were obtained:
Saccharomyces cerevisiae [1] = test: protein stability index of tFT-peptide fusion (C-terminal peptide) (PSI (0-1 scale)); higher = more stable (slower turnover); settings: genetic background: wild type; temperature: 30 C
Saccharomyces cerevisiae [2] = test: as above
Experimental: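 MPS profiling in S. cerevisiae of the tFT-X12 degron library: putative degron peptides plus stable controls, 12 aa, fused to the C-terminus of a sfGFP-mCherry timer. Cells are FACS-sorted into 8 mCherry/sfGFP bins and deep-sequenced. PSI runs from 0 (unstable) to 1 (stable). Backgrounds are wild type, das1Δ and doa10Δ at 30 °C, and wild type, das1Δ, cdc34-1 and cdc53-1 at 37 °C; 2-3 technical replicates each.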

[3] = genetic background: cdc34-1, temperature: 37 C
[4] = genetic background: cdc53-1, temperature: 37 C
[5] = genetic background: das1 deletion, temperature: 30 C
[6] = genetic background: das1 deletion, temperature: 37 C
[7] = genetic background: doa10 deletion, temperature: 30 C
[8] = genetic background: wild type, temperature: 30 C
[9] = genetic background: wild type, temperature: 37 C
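Note: PSI is a weighted mean of sequencing reads over stability bins, variants kept only with over 10 reads, mCherry proximal and sfGFP distal, peptide attached via GGGS linker.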

| Sequence | protein stability index (Saccharomyces cerevisiae [1]) | protein stability index (Saccharomyces cerevisiae [2]; [3]) | protein stability index (Saccharomyces cerevisiae [2]; [4]) | protein stability index (Saccharomyces cerevisiae [2]; [5]) | protein stability index (Saccharomyces cerevisiae [2]; [6]) | protein stability index (Saccharomyces cerevisiae [2]; [7]) | protein stability index (Saccharomyces cerevisiae [2]; [8]) | protein stability index (Saccharomyces cerevisiae [2]; [9]) |
| --- | --- | --- | --- | --- | --- | --- | --- | --- |
| FPFFLLAAPFLA | 0.237 ± 0.036 | 0.564 ± 0.007 | 0.621 ± 0.0096 | 0.546 ± 0.019 | 0.6439 ± 0.0013 | 0.16 ± 0.0077 | 0.19 ± 0.026 | 0.295 ± 0.026 |
| CFSYLLIVLLFP | 0.279 ± 0.005 | 0.168 ± 0.019 | 0.2273 ± 0.00043 | 0.198 ± 0.024 | 0.334 ± 0.031 | 0.216 ± 0.0065 | 0.17 ± 0.045 | 0.307 ± 0.0052 |
| LCWASLLIVYLP | 0.392 ± 0.011 | 0.397 ± 0.014 | 0.4614 ± 0.0036 | 0.311 ± 0.03 | 0.50382 ± 0.0004 | 0.27 ± 0.017 | 0.278 ± 0.032 | 0.463 ± 0.0039 |
| GTEFSNVITYLV | 0.493 ± 0.08 | 0.713 ± 0.018 | 0.758 ± 0.018 | 0.6288 ± 0.003 | 0.775 ± 0.021 | 0.34 ± 0.0043 | 0.389 ± 0.027 | 0.6103 ± 0.0027 |
| LVFGFSLILRVG | 0.2132 ± 0.00073 | 0.168 ± 0.025 | 0.203 ± 0.0096 | 0.272 ± 0.054 | 0.356 ± 0.016 | 0.139 ± 0.016 | 0.128 ± 0.0069 | 0.234 ± 0.018 |
| PLPSRAPVQFLL | 0.319 ± 0.021 | 0.624 ± 0.012 | 0.754 ± 0.017 | 0.643 ± 0.029 | 0.727 ± 0.0097 | 0.1719 ± 0.0011 | 0.199 ± 0.019 | 0.3725 ± 0.00074 |
| IFAWPFSATIPW | 0.784 ± 0.021 | 0.74 ± 0.022 | 0.81258 ± 0.00076 | 0.696 ± 0.012 | 0.80758 ± 0.00033 | 0.706 ± 0.0086 | 0.7 ± 0.011 | 0.788 ± 0.032 |
| FSLLFVRFCFFL | 0.305 ± 0.037 | 0.2674 ± 0.00097 | 0.323 ± 0.0039 | 0.256 ± 0.037 | 0.4195 ± 0.0026 | 0.227 ± 0.0074 | 0.248 ± 0.039 | 0.3372 ± 0.0022 |
| SGMLVYFGTVCY | 0.4498 ± 0.0028 | 0.502 ± 0.0077 | 0.599 ± 0.13 | 0.341 ± 0.03 | 0.577 ± 0.014 | 0.318 ± 0.028 | 0.357 ± 0.0091 | 0.511 ± 0.027 |
| FFRLFAPLLVVL | 0.212 ± 0.01 | 0.113 ± 0.02 | 0.0677 ± 0.015 | 0.188 ± 0.028 | 0.23 ± 0.033 | 0.2621 ± 0.0019 | 0.178 ± 0.019 | 0.1836 ± 0.0014 |
| FLIYMFRHCFFH | 0.345 ± 0.029 | 0.537 ± 0.071 | 0.626 ± 0.034 | 0.593 ± 0.015 | 0.676 ± 0.039 | 0.268 ± 0.013 | 0.278 ± 0.028 | 0.393 ± 0.018 |
| FSICGFYSLCFG | 0.492 ± 0.045 | 0.569 ± 0.028 | 0.617 ± 0.019 | 0.503 ± 0.021 | 0.628 ± 0.013 | 0.4968 ± 0.0046 | 0.512 ± 0.0077 | 0.599 ± 0.023 |
| YILIKEVLYAVC | 0.274 ± 0.018 | 0.169 ± 0.0061 | 0.171 ± 0.0086 | 0.182 ± 0.028 | 0.281 ± 0.0066 | 0.128 ± 0.023 | 0.17 ± 0.024 | 0.236 ± 0.0088 |
| SVLVWVFGLFVI | 0.446 ± 0.012 | 0.411 ± 0.012 | 0.525 ± 0.013 | 0.431 ± 0.024 | 0.56 ± 0.012 | 0.42 ± 0.028 | 0.392 ± 0.028 | 0.495 ± 0.015 |
| GGWGSSLGVWVG | 0.253 ± 0.011 | 0.663 ± 0.026 | 0.7542 ± 0.0024 | 0.644 ± 0.018 | 0.7674 ± 0.0045 | 0.178 ± 0.017 | 0.217 ± 0.015 | 0.4022 ± 0.0038 |
| KLRIVYAKVVCS | 0.348 ± 0.055 | 0.547 ± 0.044 | 0.592 ± 0.025 | 0.511 ± 0.029 | 0.613 ± 0.0069 | 0.247 ± 0.019 | 0.274 ± 0.015 | 0.407 ± 0.067 |
| SSAPTIVIWRFS | 0.495 ± 0.027 | 0.672 ± 0.041 | 0.724 ± 0.026 | 0.592 ± 0.031 | 0.7 ± 0.0079 | 0.401 ± 0.024 | 0.428 ± 0.011 | 0.6081 ± 0.0015 |
| LLILSLLVLSSR | 0.326 ± 0.0076 | 0.244 ± 0.022 | 0.348 ± 0.024 | 0.241 ± 0.021 | 0.42 ± 0.0046 | 0.2034 ± 0.00063 | 0.229 ± 0.036 | 0.37 ± 0.011 |
| WGGEFLSLTLSS | 0.684 ± 0.027 | 0.732 ± 0.028 | 0.761 ± 0.018 | 0.664 ± 0.02 | 0.7821 ± 0.0073 | 0.679 ± 0.025 | 0.683 ± 0.021 | 0.743 ± 0.025 |
| FWSARAVVWWCW | 0.477 ± 0.051 | 0.506 ± 0.036 | 0.554 ± 0.026 | 0.445 ± 0.021 | 0.567 ± 0.011 | 0.449 ± 0.012 | 0.449 ± 0.027 | 0.574 ± 0.039 |

| Sequence | protein stability index (Saccharomyces cerevisiae [1]) | protein stability index (Saccharomyces cerevisiae [2]; [3]) | protein stability index (Saccharomyces cerevisiae [2]; [4]) | protein stability index (Saccharomyces cerevisiae [2]; [5]) | protein stability index (Saccharomyces cerevisiae [2]; [6]) | protein stability index (Saccharomyces cerevisiae [2]; [7]) | protein stability index (Saccharomyces cerevisiae [2]; [8]) | protein stability index (Saccharomyces cerevisiae [2]; [9]) |
| --- | --- | --- | --- | --- | --- | --- | --- | --- |
| HVRLRFQPVLFV | 0.462 ± 0.0049 | 0.527 ± 0.027 | 0.5455 ± 0.0014 | 0.404 ± 0.029 | 0.5487 ± 0.0044 | 0.356 ± 0.01 | 0.382 ± 0.026 | 0.5139 ± 0.0024 |
| PPSRVSIRLLIR | 0.4017 ± 0.0039 | 0.446 ± 0.025 | 0.473 ± 0.0095 | 0.362 ± 0.021 | 0.461 ± 0.0062 | 0.374 ± 0.0089 | 0.371 ± 0.0086 | 0.448 ± 0.013 |
| TGYRYVGRFFVV | 0.248 ± 0.01 | 0.653 ± 0.037 | 0.723 ± 0.039 | 0.588 ± 0.016 | 0.691 ± 0.016 | 0.155 ± 0.0032 | 0.163 ± 0.02 | 0.329 ± 0.011 |
| LPVPARPFPPSS | 0.714 ± 0.0095 | 0.662 ± 0.027 | 0.713 ± 0.0083 | 0.684 ± 0.024 | 0.711 ± 0.014 | 0.705 ± 0.031 | 0.688 ± 0.021 | 0.6907 ± 0.0012 |
| RRPVHTHTSVSP | 0.606 ± 0.25 | 0.7449 ± 0.00016 | 0.742 ± 0.05 | 0.652 ± 0.026 | 0.733 ± 0.0094 | 0.658 ± 0.022 | 0.6561 ± 0.0035 | 0.701 ± 0.012 |
| SPCFLDPPRLIS | 0.388 ± 0.025 | 0.663 ± 0.031 | 0.728 ± 0.025 | 0.681 ± 0.022 | 0.7568 ± 0.0044 | 0.287 ± 0.018 | 0.328 ± 0.032 | 0.536 ± 0.02 |
| RVGYSIIIIGIE | 0.354 ± 0.0038 | 0.351 ± 0.026 | 0.433 ± 0.087 | 0.312 ± 0.042 | 0.48295 ± 0.00022 | 0.244 ± 0.0084 | 0.303 ± 0.019 | 0.457 ± 0.029 |
| VSPATFLFYFFF | 0.497 ± 0.017 | 0.62 ± 0.022 | 0.688 ± 0.011 | 0.544 ± 0.02 | 0.655 ± 0.0092 | 0.37374 ± 0.00014 | 0.396 ± 0.013 | 0.5607 ± 0.00097 |
| WVVWVLVGGFGG | 0.384 ± 0.032 | 0.299 ± 0.022 | 0.42448 ± 0.00021 | 0.277 ± 0.036 | 0.4813 ± 0.0047 | 0.232 ± 0.0043 | 0.266 ± 0.021 | 0.449 ± 0.03 |
| VGYHCIVGVIFL | 0.524 ± 0.081 | 0.467 ± 0.031 | 0.491 ± 0.041 | 0.359 ± 0.036 | 0.545 ± 0.0059 | 0.326 ± 0.012 | 0.372 ± 0.013 | 0.512 ± 0.015 |
| VFSRVLSVLLSA | 0.386 ± 0.0071 | 0.493 ± 0.011 | 0.514 ± 0.033 | 0.405 ± 0.029 | 0.5429 ± 0.0039 | 0.2377 ± 0.0015 | 0.282 ± 0.027 | 0.457 ± 0.024 |
| LFWPPCYLFFCL | 0.389 ± 0.031 | 0.446 ± 0.034 | 0.508 ± 0.052 | 0.473 ± 0.039 | 0.677 ± 0.045 | 0.393 ± 0.03 | 0.324 ± 0.027 | 0.437 ± 0.024 |
| VLYLQCITSAGH | 0.246 ± 0.023 | 0.1691 ± 0.00061 | 0.203 ± 0.0061 | 0.273 ± 0.025 | 0.195 ± 0.021 | 0.31 ± 0.044 | 0.29 ± 0.037 | 0.178 ± 0.0088 |
| VVVVWVVVEIVR | 0.169 ± 0.036 | 0.147 ± 0.033 | 0.275 ± 0.11 | 0.164 ± 0.022 | 0.279 ± 0.033 | 0.121 ± 0.018 | 0.133 ± 0.024 | 0.178 ± 0.012 |
| CGLYNQFCLFLY | 0.31 ± 0.027 | 0.561 ± 0.04 | 0.626 ± 0.022 | 0.527 ± 0.018 | 0.6526 ± 0.0024 | 0.2274 ± 0.0022 | 0.217 ± 0.029 | 0.37 ± 0.0043 |
| VFGFLVFYVCVR | 0.268 ± 0.0095 | 0.0903 ± 0.036 | 0.146 ± 0.021 | 0.153 ± 0.047 | 0.282 ± 0.014 | 0.135 ± 0.027 | 0.151 ± 0.026 | 0.248 ± 0.026 |
| LSLSPRLPRLVA | 0.283 ± 0.038 | 0.613 ± 0.015 | 0.659 ± 0.018 | 0.537 ± 0.014 | 0.663 ± 0.0015 | 0.156 ± 0.0087 | 0.197 ± 0.023 | 0.377 ± 0.026 |
| TLNKDILIIKCA | 0.212 ± 0.0051 | 0.382 ± 0.023 | 0.42 ± 0.036 | 0.286 ± 0.035 | 0.45 ± 0.013 | 0.135 ± 0.022 | 0.175 ± 0.022 | 0.214 ± 0.049 |
| RLSGACILLSLV | 0.388 ± 0.081 | 0.634 ± 0.045 | 0.694 ± 0.015 | 0.553 ± 0.03 | 0.681 ± 0.0082 | 0.217 ± 0.0063 | 0.259 ± 0.022 | 0.439 ± 0.026 |
